{
  "source": "paper PMC7424515",
  "about": "“Molecular characterization of pyridoxine 5′-phosphate oxidase and its pathogenic forms associated with neonatal epileptic encephalopathy” (Scientific Reports, 2020)",
  "molecules": {"B1": {"name": "human pyridoxine 5′-phosphate oxidase (PNPO), wild type (enzyme)", "chain": "MTCWLRGVTATFGRPAEWPGYLSHLCGRSAAMDLGPMRKSYRGDREAFEETHLTSLDPVKQFAAWFEEAVQCPDIGEANAMCLATCTRDGKPSARMLLLKGFGKDGFRFFTNFESRKGKELDSNPFASLVFYWEPLNRQVRVEGPVKKLPEEEAECYFHSRPKSSQIGAVVSHQSSVIPDREYLRKKNEELEQLYQDQEVPKPKSWGGYVLYPQVMEFWQGQTNRLHDRIVFRRGLPTGDSPLGPMTHRGEEDWLYERLAP", "notes": "also called wild type PNPO; pyridoxal 5′-phosphate synthase; source: E. coli, pET28-PNPO, purified (HisTrap metal-chelation chromatography)"}, "B2": {"name": "human PNPO G118R variant (enzyme)", "chain": "B1 chain with G118R", "notes": "Pathogenic variant found in PNPOD patients; source: E. coli Rosetta(λDE3), purified (HisTrap metal-chelation chromatography)"}, "B3": {"name": "human PNPO R141C variant (enzyme)", "chain": "B1 chain with R141C", "notes": "Pathogenic variant found in a PNPOD patient; source: E. coli Rosetta(λDE3), purified (HisTrap metal-chelation chromatography)"}, "B4": {"name": "human PNPO R225H variant (enzyme)", "chain": "B1 chain with R225H", "notes": "as for B2"}, "B5": {"name": "human PNPO R116Q/R225H double variant (enzyme)", "chain": "B1 chain with R116Q, R225H", "notes": "Combination of replacements found together in PNPOD patients; source: E. coli Rosetta(λDE3), purified (HisTrap metal-chelation chromatography)"}},
  "note": "Where a chain is given by its changes, count along the chain named. Numbers in names are those of the source.",
  "data": [
    {"target": "human PNPO X262Q variant (human)", "test": "SEC; Superdex 200 10/300 GL; 20 mM potassium-phosphate buffer, pH 7.6, 150 mM NaCl, 5 mM 2-mercaptoethanol; oligomeric state from elution profile", "values": [
      {"molecule": "human PNPO X262Q variant (enzyme)", "stoichiometry N": 2}
    ]},
    {"target": "the molecule itself", "test": "SEC; Superdex 200 10/300 GL; 20 mM potassium-phosphate buffer, pH 7.6, 150 mM NaCl, 5 mM 2-mercaptoethanol; oligomeric state from elution profile", "values": [
      {"molecule": "B1", "stoichiometry N": 2},
      {"molecule": "B2", "stoichiometry N": 2},
      {"molecule": "B3", "stoichiometry N": 2},
      {"molecule": "B4", "stoichiometry N": 2},
      {"molecule": "B5", "stoichiometry N": 2}
    ]}
  ]
}
